Laboratory results reported in paper PMC3335792, “M. tuberculosis Sliding β-Clamp Does Not Interact Directly with the NAD^+ -Dependent DNA Ligase” (PLoS ONE, 2012).

Tests used:
[1] = target: T1, Mtbβ-clamp labeled with OregonGreen488 maleimide (Mtbβ-clamp^OG) (M. tuberculosis, UniProt P9WNU1 1-402, OregonGreen488 maleimide label (residue not stated)); assay: other fluorescence titration; OregonGreen488-labeled β-clamp (50 or 100 nM in the methods, 90 nM in the legend) titrated with the partner protein; 20 mM Tris-Cl pH 7.5, 8 mM MgCl2, 1 mM DTT, 0.2 mM EDTA, 50 mM NaCl, 0.5 mM ATP, 22°C; emission at 510 nm; apparent Kd; conditions: both partners purified
T1 construct: also called Mtbβ^OG-Clamp
T1 sequence: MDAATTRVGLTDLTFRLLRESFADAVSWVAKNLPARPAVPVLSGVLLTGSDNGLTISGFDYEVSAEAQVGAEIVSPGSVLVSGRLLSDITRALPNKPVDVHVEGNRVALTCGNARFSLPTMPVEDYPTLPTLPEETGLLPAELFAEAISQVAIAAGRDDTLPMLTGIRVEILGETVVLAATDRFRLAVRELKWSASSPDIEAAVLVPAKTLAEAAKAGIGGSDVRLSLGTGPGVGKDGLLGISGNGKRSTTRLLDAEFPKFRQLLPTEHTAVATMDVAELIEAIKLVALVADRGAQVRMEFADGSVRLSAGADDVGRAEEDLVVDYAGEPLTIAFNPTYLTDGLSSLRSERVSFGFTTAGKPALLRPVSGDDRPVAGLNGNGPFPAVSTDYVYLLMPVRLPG

[2] = target: the molecule itself; assay: crystal structure; Mtbβ-Clamp, hanging drop, 9% isopropanol, 12% PEG4K, 0.1 M Na HEPES pH 7.0, 295 K; space group C222_(1); two chains in the asymmetric unit

B1: γ-subunit of the DNA clamp loader complex of M. tuberculosis (Rv3721c) (natural protein)
chain: MALYRKYRPASFAEVVGQEHVTAPLSVALDAGRINHAYLFSGPRGCGKTSSARILARSLNCAQGPTANPCGVCESCVSLAPNAPGSIDVVELDAASHGGVDDTRELRDRAFYAPVQSRYRVFIVDEAHMVTTAGFNALLKIVEEPPEHLIFIFATTEPEKVLPTIRSRTHHYPFRLLPPRTMRALLARICEQEGVVVDDAVYPLVIRAGGGSPRDTLSVLDQLLAGAADTHVTYTRALGLLGVTDVALIDDAVDALAACDAAALFGAIESVIDGGHDPRRFATDLLERFRDLIVLQSVPDAASRGVVDAPEDALDRMREQAARIGRATLTRYAEVVQAGLGEMRGATAPRLLLEVVCARLLLPSASDAESALLQRVERIETRLDMSIPAPQAVPRPSAAA
notes: γ-subunit of the DNA clamp loader (DNA polymerase III subunit gamma/tau) of M. tuberculosis, Rv3721c; also called γ-clamp loader; Mtb-γ-subunit
**Q.** Which Kd [1] does the source give for B1 here?
**A.** Its Kd is 23.8 nM.

B2: M. tuberculosis sliding β-clamp (Mtbβ-clamp, Rv0002) (natural protein)
chain: T1 sequence
notes: also called beta clamp; Native Mtbβ-Clamp
**Q.** Does B2 bind [2]?
**A.** Result: binds
